Results from US20190218479A1, “Stabilized Liquid Peroxide Compositions” (Novozymes A/S, priority 2016, published 2019).

Columns and labels:
Format in all cases: physicochemical
[1] = Stability of Subtilisin1 and Subtilisin2 in the liquid peroxide composition of Table 1 (residual protease activity, N,N-dimethylcasein/TNBS); conditions: for % Subtilisin residual activity after 4 weeks: liquid peroxide composition in Table 1 (0.8% H2O2, pH 7.0)
Method: (§1) The compositions were prepared as shown in the examples and samples stored in closed vials for storage. Residual activity was measured by comparing activity in a stored sample at the time of taken out of incubation without freezing and comparing activity to a freshly prepared sample without peroxide and dividing activity in the stored sample with activity in the fresh sample.
(§2) Activity analysis is performed by analysing protease activity by hydrolysis of N,N-dimethylcasein to produce a carboxylic acid and a primary amine compounds. The primary amines that are formed react, under alkaline conditions, with tri-nitrobenzenesulfonic acid (TNBS) to form a colored complex. The amount of colored complex that forms over the fixed reaction period at a constant temperature (530 seconds at 40° C.; complex absorbance is measured at 405 nm) is related to the amount of active protease present in the sample. The amount of colored product complex produced is compared to a standard curve based on known protease concentrations to calculate the amount of active protease in the detergent sample. The amount of protease activity at a specific time point is compared to the t=0 activity level to calculate the % active protease remaining.

[2] = Residual hydrogen peroxide after storage, permanganate titration
Method: Residual hydrogen peroxide (H2O2) was measured by permanganate titration (reduction of potassium permanganate by hydrogen peroxide in sulfuric acid).

[3] = molecular target: T1, Subtilisin1 (Lederbergia lenta, UniProt P29600, M216S); test: Residual activity of Subtilisin1 after storage in peroxide model detergents with or without subtilisin stabilizers (N,N-dimethylcasein/TNBS)
From the text: Chemicals used as buffers and substrates were commercial products of at least reagent grade. Subtilisin1 has the amino acid sequence as shown in SEQ ID NO: 2, which is a subtilisin having a M216 substitution according to the invention. Subtilisin2 has the amino acid sequence as shown in SEQ ID NO: 1, which is a reference subtilisin not covered by the invention. The stock solution of each subtilisin contains 4.4% w/w of active enzyme protein. Stabilizer1: Cbz-Gly-Ala-Tyr-H (C-terminal aldehyde), wherein Cbz is benzyloxycarbonyl; which is a subtilisin stabilizer according to the invention. When used in the examples below, Stabilizer1 was added to the subtilisin stock solution at a concentration of 0.28% w/w. Stabilizer2: Cbz-Gly-Ala-NHCH(CH2C6H4pOH)CH(OH)(OSO3)Na (hydrosulfite adduct of a C-terminal aldehyde) wherein Cbz is benzyloxycarbonyl; which is a subtilisin stabilizer according to the invention. When used in the examples below, Stabilizer2 was added to the subtilisin stock solution at a concentration of 0.35% w/w. Stabilizer3: MeOCO-Val-Ala-Leu-H (C-terminal aldehyde). When used in the examples below, Stabilizer3 was added to the subtilisin stock solution at a concentration of 0.28% w/w. Stabilizer4: 4-formyl-phenyl-boronic acid (4-FPBA); which is a reference protease stabilizer not covered by the invention. When used in the examples below, Stabilizer4 was added to the subtilisin stock solution at a concentration of 3.4% w/w.
as §1, §2
This study examined Subtilisin1 stability in the presence of hydrogen peroxide, with and without subtilisin stabilizers (Stabilizer4 and Stabilizer2) in two different model detergents at pH 7 and 9.

[4] = molecular target: T1, Subtilisin1; test: as above; remark: listed apart in the source

B1: Subtilisin1: subtilisin with amino acid sequence SEQ ID NO: 2, having a M216 substitution according to the invention (protein)
chain: AQSVPWGISRVQAPAAHNRGLTGSGVKVAVLDTGISTHPDLNIRGGASFVPGEPSTQDGNGHGTHVAGTIAALNNSIGVLGVAPSAELYAVKVLGASGSGSVSSIAQGLEWAGNNGMHVANLSLGSPSPSATLEQAVNSATSRGVLVVAASGNSGAGSISYPARYANAMAVGATDQNNNRASFSQYGAGLDIVAPGVNVQSTYPGSTYASLNGTSSATPHVAGAAALVKQKNPSWSNVQIRNHLKNTATSLGSTNLYGSGLVNAEAATR
modifications: Variant of SEQ ID NO 1
% Subtilisin residual activity after 4 weeks ([1]; 22° C.): 81% | % Subtilisin residual activity after 4 weeks ([1]; 30° C.): 61% | % Subtilisin residual activity after 4 weeks ([1]; 37° C.): 46% | stability in the liquid peroxide composition, compared with Subtilisin2 ([1]; liquid peroxide composition in Table 1, summary of Table 2): much better | Residual H2O2 after 4 weeks ([2]; liquid peroxide composition in Table 1, 22° C.): 99.0% | Residual H2O2 after 4 weeks ([2]; liquid peroxide composition in Table 1, 30° C.): 98.7% | Residual H2O2 after 4 weeks ([2]; liquid peroxide composition in Table 1, 37° C.): 97.8% | Residual H2O2 (after storage) ([2]; nonionic laundry detergent in Table 7, relative to initially added H2O2 = 1%, 22° C., pH 7): 95% | Residual H2O2 (after storage) ([2]; nonionic laundry detergent in Table 7, relative to initially added H2O2 = 1%, 22° C., pH 9): 95% | Residual H2O2 (after storage) ([2]; nonionic laundry detergent in Table 7, relative to initially added H2O2 = 1%, 30° C., pH 7): 94% | Residual H2O2 (after storage) ([2]; nonionic laundry detergent in Table 7, relative to initially added H2O2 = 1%, 30° C., pH 9): 94% | Residual H2O2 (after storage) ([2]; nonionic laundry detergent in Table 7, relative to initially added H2O2 = 1%, 37° C., pH 7): 92% | Residual H2O2 (after storage) ([2]; nonionic laundry detergent in Table 7, relative to initially added H2O2 = 1%, 37° C., pH 9): 91% | Residual H2O2 (after storage) ([2]; nonionic pretreatment detergent in Table 4, relative to initially added H2O2 = 1%, 22° C., pH 7): ≥100% | Residual H2O2 (after storage) ([2]; nonionic pretreatment detergent in Table 4, relative to initially added H2O2 = 1%, 22° C., pH 9): 93% | Residual H2O2 (after storage) ([2]; nonionic pretreatment detergent in Table 4, relative to initially added H2O2 = 1%, 30° C., pH 7): ≥100% | Residual H2O2 (after storage) ([2]; nonionic pretreatment detergent in Table 4, relative to initially added H2O2 = 1%, 30° C., pH 9): 91% | Residual H2O2 (after storage) ([2]; nonionic pretreatment detergent in Table 4, relative to initially added H2O2 = 1%, 37° C., pH 7): ≥100% | Residual H2O2 (after storage) ([2]; nonionic pretreatment detergent in Table 4, relative to initially added H2O2 = 1%, 37° C., pH 9): 90% | Residual H2O2 (after storage) ([2]; nonionic/anionic laundry detergent in Table 13, relative to initially added H2O2 = 1%, 22° C., pH 7): 101% | Residual H2O2 (after storage) ([2]; nonionic/anionic laundry detergent in Table 13, relative to initially added H2O2 = 1%, 22° C., pH 9): 95% | Residual H2O2 (after storage) ([2]; nonionic/anionic laundry detergent in Table 13, relative to initially added H2O2 = 1%, 30° C., pH 7): 99% | Residual H2O2 (after storage) ([2]; nonionic/anionic laundry detergent in Table 13, relative to initially added H2O2 = 1%, 30° C., pH 9): 92% | Residual H2O2 (after storage) ([2]; nonionic/anionic laundry detergent in Table 13, relative to initially added H2O2 = 1%, 37° C., pH 7): 101% | Residual H2O2 (after storage) ([2]; nonionic/anionic laundry detergent in Table 13, relative to initially added H2O2 = 1%, 37° C., pH 9): 97% | Residual H2O2 (after storage) ([2]; nonionic/anionic pretreatment detergent in Table 10, relative to initially added H2O2 = 1%, 22° C., pH 7): 88% | Residual H2O2 (after storage) ([2]; nonionic/anionic pretreatment detergent in Table 10, relative to initially added H2O2 = 1%, 30° C., pH 7): 86% | Residual H2O2 (after storage) ([2]; nonionic/anionic pretreatment detergent in Table 10, relative to initially added H2O2 = 1%, 37° C., pH 7): 100% | Residual H2O2 (after storage) ([2]; nonionic/anionic pretreatment detergent in Table 10, relative to initially added H2O2 = 1%, 37° C., pH 9): 95% | Residual H2O2 (after storage) ([2]; nonionic/anionic pretreatment detergent in Table 16, relative to initially added H2O2 = 2%, 22° C., pH 7): 87% | Residual H2O2 (after storage) ([2]; nonionic/anionic pretreatment detergent in Table 16, relative to initially added H2O2 = 2%, 30° C., pH 7): 84% | Residual H2O2 (after storage) ([2]; nonionic/anionic pretreatment detergent in Table 16, relative to initially added H2O2 = 2%, 37° C., pH 7): 90% | Residual H2O2 (after storage) ([2]; nonionic/anionic pretreatment detergent in Table 16, relative to initially added H2O2 = 2%, 37° C., pH 9): 92% | Residual activity of Subtilisin1 after storage ([3]; liquid nonionic laundry detergent in Table 7 (1.0% H2O2), 22° C., pH 7): 63% | Residual activity of Subtilisin1 after storage ([3]; liquid nonionic laundry detergent in Table 7 (1.0% H2O2), 22° C., pH 9): 75% | Residual activity of Subtilisin1 after storage ([3]; liquid nonionic laundry detergent in Table 7 (1.0% H2O2), 30° C., pH 7): 47% | Residual activity of Subtilisin1 after storage ([3]; liquid nonionic laundry detergent in Table 7 (1.0% H2O2), 30° C., pH 9): 68% | Residual activity of Subtilisin1 after storage ([3]; liquid nonionic laundry detergent in Table 7 (1.0% H2O2), 37° C., pH 7): 30% | Residual activity of Subtilisin1 after storage ([3]; liquid nonionic laundry detergent in Table 7 (1.0% H2O2), 37° C., pH 9): 45% | Residual activity of Subtilisin1 after storage ([3]; liquid nonionic pretreatment detergent in Table 4 (1.0% H2O2), 22° C., pH 7): 85% | Residual activity of Subtilisin1 after storage ([3]; liquid nonionic pretreatment detergent in Table 4 (1.0% H2O2), 22° C., pH 9): 40% | Residual activity of Subtilisin1 after storage ([3]; liquid nonionic pretreatment detergent in Table 4 (1.0% H2O2), 30° C., pH 7): 65% | Residual activity of Subtilisin1 after storage ([3]; liquid nonionic pretreatment detergent in Table 4 (1.0% H2O2), 30° C., pH 9): 19% | Residual activity of Subtilisin1 after storage ([3]; liquid nonionic pretreatment detergent in Table 4 (1.0% H2O2), 37° C., pH 7): 44% | Residual activity of Subtilisin1 after storage ([3]; liquid nonionic pretreatment detergent in Table 4 (1.0% H2O2), 37° C., pH 9): 12% | Residual activity of Subtilisin1 after storage ([3]; liquid nonionic/anionic laundry detergent in Table 13 (1.0% H2O2), 22° C., pH 7): 84% | Residual activity of Subtilisin1 after storage ([3]; liquid nonionic/anionic laundry detergent in Table 13 (1.0% H2O2), 22° C., pH 9): 63% | Residual activity of Subtilisin1 after storage ([3]; liquid nonionic/anionic laundry detergent in Table 13 (1.0% H2O2), 30° C., pH 7): 62% | Residual activity of Subtilisin1 after storage ([3]; liquid nonionic/anionic laundry detergent in Table 13 (1.0% H2O2), 30° C., pH 9): 34% | Residual activity of Subtilisin1 after storage ([3]; liquid nonionic/anionic laundry detergent in Table 13 (1.0% H2O2), 37° C., pH 7): 40% | Residual activity of Subtilisin1 after storage ([3]; liquid nonionic/anionic laundry detergent in Table 13 (1.0% H2O2), 37° C., pH 9): 23% | Residual activity of Subtilisin1 after storage ([3]; liquid nonionic/anionic pretreatment detergent in Table 10 (1.0% H2O2), 22° C., pH 7): 79% | Residual activity of Subtilisin1 after storage ([3]; liquid nonionic/anionic pretreatment detergent in Table 10 (1.0% H2O2), 22° C., pH 9): 57% | Residual activity of Subtilisin1 after storage ([3]; liquid nonionic/anionic pretreatment detergent in Table 10 (1.0% H2O2), 30° C., pH 7): 66% | Residual activity of Subtilisin1 after storage ([3]; liquid nonionic/anionic pretreatment detergent in Table 10 (1.0% H2O2), 30° C., pH 9): 47% | Residual activity of Subtilisin1 after storage ([3]; liquid nonionic/anionic pretreatment detergent in Table 10 (1.0% H2O2), 37° C., pH 7): 52% | Residual activity of Subtilisin1 after storage ([3]; liquid nonionic/anionic pretreatment detergent in Table 10 (1.0% H2O2), 37° C., pH 9): 29% | Residual activity of Subtilisin1 after storage ([3]; liquid nonionic/anionic pretreatment detergent in Table 16 (2.0% H2O2), 22° C., pH 7): 85% | Residual activity of Subtilisin1 after storage ([3]; liquid nonionic/anionic pretreatment detergent in Table 16 (2.0% H2O2), 22° C., pH 9): 30% | Residual activity of Subtilisin1 after storage ([3]; liquid nonionic/anionic pretreatment detergent in Table 16 (2.0% H2O2), 30° C., pH 7): 69% | Residual activity of Subtilisin1 after storage ([3]; liquid nonionic/anionic pretreatment detergent in Table 16 (2.0% H2O2), 30° C., pH 9): 12% | Residual activity of Subtilisin1 after storage ([3]; liquid nonionic/anionic pretreatment detergent in Table 16 (2.0% H2O2), 37° C., pH 7): 50% | Residual activity of Subtilisin1 after storage ([3]; liquid nonionic/anionic pretreatment detergent in Table 16 (2.0% H2O2), 37° C., pH 9): 5% | Residual activity after storage for 2 weeks at 30° C. ([4]; Subtilisin1 in “Mix Laundry” (Table 19, pH 7.5) no H2O2, no sodium salicylate, no polyDADMAC): 73% | Residual activity after storage for 2 weeks at 30° C. ([4]; Subtilisin1 in “Mix Laundry” (Table 19, pH 7.5) with 1% H2O2, with sodium salicylate, with polyDADMAC): 42% | Residual activity after storage for 2 weeks at 37° C. ([4]; Subtilisin1 in “NI pretreat” (Table 19, pH 7.0) with 1% H2O2, with sodium salicylate, with polyDADMAC): 38% | Residual activity after storage for 2 weeks at 37° C. ([4]; Subtilisin1 in “NI pretreat” (Table 19, pH 7.0) without H2O2, no sodium salicylate, no polyDADMAC): 82%
